What all share (type): cell-based, human
In series [1] the test system is ovarian cancer cell lines. Nature of the series: Cisplatin IC50 in multiple ovarian cancer cell lines. The following applies: OVCAR8 and SKOV3ip1 cells, p<0.001. The procedure:
(§1) Established ovarian cancer cell lines were obtained from the ATCC (OVCAR8, OVCAR5) and the University of Texas M.D. Anderson Cancer Center (HEYA8, SKOV3ip1). All cell lines were maintained at 37° C. in RPMI 1640 media (Invitrogen, Carlsbad, Calif.) supplemented with 10% fetal bovine serums (Hyclone, Logan, Utah) and 1% penicillin/streptomycin (Gibco, Carlsbad, Calif.). MicroRNA mimics and mimic controls (Dharmacon, Lafayette, Colo.) were transiently transfected into actively growing cultures using Lipofectamine 2000 (Invitrogen, Carlsbad, Calif.). After a 24-hour incubation, transfected cultures were washed, passaged and seeded into 96 well plates. Proliferation and apoptosis were measured at 72, 96 and 120 hours after transfection using standard assays (Cell Titer 96 Aqueous One; Caspase Glo 3/7; Promega, Madison, Wis.). pLemiR expression vectors (Open Biosystems/Thermo, Huntsville, Ala.) were prepared according to manufacturer's instructions and transfected into cells using Fugene 6 (Roche, Indianapolis, Ind.). Following transfection, stable clones were selected using puromycin (Invitrogen) at doses optimized for each line. […] Viability was assessed across a clinically relevant range of cisplatin concentrations using an MTS assay (Promega). […]

Another series deals with HEY cells. The series is described as follows: Proliferation assay. The following applies: mimic transfection. The method, then:
(§2) Established ovarian cancer cell lines were obtained from the ATCC (OVCAR8, OVCAR5) and the University of Texas M.D. Anderson Cancer Center (HEYA8, SKOV3ip1). All cell lines were maintained at 37° C. in RPMI 1640 media (Invitrogen, Carlsbad, Calif.) supplemented with 10% fetal bovine serums (Hyclone, Logan, Utah) and 1% penicillin/streptomycin (Gibco, Carlsbad, Calif.). MicroRNA mimics and mimic controls (Dharmacon, Lafayette, Colo.) were transiently transfected into actively growing cultures using Lipofectamine 2000 (Invitrogen, Carlsbad, Calif.). After a 24-hour incubation, transfected cultures were washed, passaged and seeded into 96 well plates. Proliferation and apoptosis were measured at 72, 96 and 120 hours after transfection using standard assays (Cell Titer 96 Aqueous One; Caspase Glo 3/7; Promega, Madison, Wis.). pLemiR expression vectors (Open Biosystems/Thermo, Huntsville, Ala.) were prepared according to manufacturer's instructions and transfected into cells using Fugene 6 (Roche, Indianapolis, Ind.). Following transfection, stable clones were selected using puromycin (Invitrogen) at doses optimized for each line. Rates of proliferation and apoptosis were examined in stable transfectants 24, 48, 72 and 96 hours after selected cells had been passaged and dispensed into 96 well plates. Viability was assessed across a clinically relevant range of cisplatin concentrations using an MTS assay (Promega). Cisplatin was obtained from Teva Pharmaceuticals (Irvine, Calif.).

Another series relates to HEYA8 cells. The series is described as follows: Proliferation assay. The following applies: HEYA8, acute mimic transfection. The method, then:
as §2

A further series relates to OVCAR5. The series is described as follows: Proliferation assay. Particulars: OVCAR5, mimic transfection. The procedure:
as §2

The test system of series [2] is established ovarian cancer cell lines. The series is described as follows: Proliferation or apoptosis in established ovarian cancer cell lines after mimic transfection. Particulars: mimics vs control cultures; cell lines SKOV4, HEY, OVCAR8, OVCAR5. The method, then: as §1
The subject of the next series is ATM. The series is described as follows: Western blot of ATM in OVCAR8 cells. Particulars: for ATM degradation / cleavage product (ΔATM): OVCAR8, increasing concentrations of cisplatin; for ATM protein expression: OVCAR8 stably expressing the microRNA vs non-silencing control or empty vector. The method, then: Whole cell lysates equivalent to 30 μg of protein were resolved on 4-12% gradient SDS-PAGE. Resolved proteins were transferred onto PVDF membranes using the iBlot system (Invitrogen). Rabbit polyclonal and/or mouse monoclonal antibodies specifically recognizing ATM, phospo-ATM (Ser1981) CHK1 phospho-CHK1 (Ser216), p21, phospo-CHK2 ([…]), BCL2, XIAP, CDC25A were obtained from Cell Signaling Technologies (Danvers, Mass.). A rabbit polyclonal antibody recognizing FANCD2 was also purchased from Abcam (Cambridge, Mass.). Protein expression was visualized using species-specific, horseradish peroxidase-conjugated secondary antibody (Cell Signaling) and ECL Plus chemiluminescent substrate (Amersham, Buckinghamshire, UK).
(In general: Immunoblotting shows a protein as a band on a membrane.)

Another series has as its system ATM transcript. The series is described as follows: qPCR of ATM transcript in OVCAR8 cells. Particulars: OVCAR8, qPCR vs non-silencing control, baseline without cisplatin. The procedure: (§3) Total RNA was extracted from cell pellets using the mirVana miRNA extraction kit (Ambion, Austin, Tex.) according to the manufacturer's instructions. Levels of microRNA expression were examined using Mature MicroRNA Taqman assays (Applied Biosystems, Foster City, Calif.) using U6 as a control. For all gene expression assays, cDNA was prepared using qScript cDNA supermix (Quanta Biosciences, Gaithersburg, Md.). TaqMan gene expression assays (Applied Biosystems) were used to measure expression of specific target genes according to the manufacturer's instructions. All reactions were performed in triplicate using OneStepPlus real time PCR system (Applied Biosystems). All qPCR results are reported using the ΔΔCT method (17).
For orientation: In qPCR the cycle at which signal appears reflects the starting amount.

In another series the test system is BRCA1. The series is described as follows: qPCR gene response to cisplatin in OVCAR8 cells. The following applies: OVCAR8 stable clones vs non-silencing control. The method, then: as §3
The test system of another series is CASP7. The series is described as follows: qPCR gene response to cisplatin in OVCAR8 cells. The following applies: OVCAR8 stable clones vs non-silencing control. The method, then:
as §3

The test system of another series is CDC25c. The series is described as follows: qPCR gene response to cisplatin in OVCAR8 cells. The following applies: OVCAR8 stable clones vs non-silencing control. The procedure: as §3
For a further series, the system named is CHK1. The series is described as follows: qPCR gene response to cisplatin in OVCAR8 cells. The following applies: OVCAR8 stable clones vs non-silencing control. The method, then: as §3
A further series relates to CHK2. Nature of the series: qPCR gene response to cisplatin in OVCAR8 cells. The following applies: OVCAR8 stable clones vs non-silencing control. The method, then: as §3
A further series relates to SVOK3ip1 cells. The series is described as follows: Spheroid formation. The following applies: cells stably expressing mimics.
The test system of a further series is lin28A/B. Nature of the series: Stemness gene expression in media that induce spheroid formation. The following applies: OVCAR8 and SKOV3ip1.

This note sets out measurements from patent publication US9758785B2, “miR-520 microRNAs sensitize cancers to platinum-based therapy” (BAYLOR COLLEGE OF MEDICINE, priority 2012, dated 2017).

“Also recorded” adds a separate entry of the source.

B1: hsa-mir-520h MI0003175 (nucleic acid, listed as Homo sapiens)
chain: UCCCAUGCUGUGACCCUCUAGAGGAAGCACUUUCUGUUUGUUGUCUGAGAAAAAACAAAGUGCUUCCCUUUAGAGUUACUGUUUGGGA
modifications: expressed or natural sequence
notes: synthetic mimic or stably expressed from pLemiR vector; written miR-520g/h interchangeably
B1: the “Reduction of IC50 for cisplatin” value in series [1] was no more than 4 fold. For the same molecule, the figures for the Proliferation result in the series on HEY cells, in the series on HEYA8 cells and with OVCAR5 were “no impact”, “no significant impact” and “no impact”, respectively. The “Impact on proliferation or apoptosis” value in series [2] was “significantly impacted”. For the same molecule, the “ATM degradation / cleavage product (ΔATM)” value in the series on ATM is “induced both the phosphorylation and degradation”; in the series on ATM (listed as MiR-520h), “promotes a proteolytic degradation”; in the series with ATM (listed as miR-520g/h), “increased levels”. Moreover, the “Phosphorylated ATM level” value in the series with ATM (OVCAR8 stably expressing the microRNA) is listed as “decreased levels”. The ATM protein expression result is reported as “decreased levels” with ATM, “markedly reduced” in the series on ATM (listed as Mir-520g/h) and “significantly less” in the series on ATM (listed as miR-520g/h). Further, the ATM transcript level entry in the series with ATM transcript is recorded as “paradoxically higher”; in the series on ATM transcript (listed as miR-520g/h), “actually higher”. For the same molecule, the “BRCA1 expression response to cisplatin” value is “blunts the responses” in the series on BRCA1 and “significantly less” with BRCA1 (listed as miR-520g/h). The entries for the “Caspase 7 expression response to cisplatin” value with CASP7 and with CASP7 (listed as miR-520g/h) were “targeted; also recorded: blunts the responses” and “significantly less”, respectively. In the series on CDC25c, the “CDC25C expression response to cisplatin” value is “blunts the responses”. Further, the “CHK1 expression response to cisplatin” value with CHK1 is reported as “inhibited; also recorded: blunts the responses”. Moreover, in the series on CHK2, the “CHK2 expression response to cisplatin” value was “blunts the responses”. The “Capacity to form spheroids” value in the series with SVOK3ip1 cells is “decreased capacity to form spheroids”. Besides, in the series with lin28A/B, the “Spheroid-media-induced expression of stemness genes (lin28A/B)” value was “eliminates increased expression”.
